This is an account of results in the DeepSol protein solubility set.

The data set in a line: soluble on expression in E. coli; label from the status in PepcDB or PDB records.
As to “MAHHHHHHMLTIRVGNLPVCLCSNLRNTFNPTYAFGVKRNDGTVALLDGKSGHLLLPFDAEGNIIVTPGADYQLVFLSNDSTSSTVHTTQGLGKGGTNKTSHDFELTKALAKDGSIHREKRRLDDGRATSRERFHKGNAHYSVSDSKPTKRRKRDHSVDKDAVVEAEFGSQSINKKERSVKASRKDSNREDSDDPDDIPIFCTLAGKPTPAPISSNHTPTVSPAPKEVYLVDNFDPTTRPAHSEEGALDSSATELISS”, the “soluble on expression in E. coli” value is “soluble”.
Under “MSLKINIKDDAQAYLADKIPAGSQVILTTDDGSNKYSSLGGSCAIGNKFQLVILKAADPDYTTPLENNAGYVMHVAPADEAYLGNGLNISRWHNALALKDDSGMLDGALAVVDWRDVSPETEAERREKMQTIGTKICEGHHHHHH” stands “soluble”.
Under “MTYRVKIHKQVVKALQSLPKAHYRRFLEFRDILEYEPVPREKFDVIKLEGTGDLDLYRARLGDYRVIYSVNWKDKVIKILKLKPRGRAYK” stands “soluble”; under “MVFMEENKKYRILGTLLYYVLRIISSTLKIEIVNKYGIDMQRPHIYGFWHSKLFITPIFFRNVEKKLAMSSPTKDGELISVPLEKMGYILVRGSSDKNQISSTISLLKYLKKGYSIGTPLDGPKGPKEKPKKGLLYLSQKTSVPLVPVGISYSKKWILKKTWDQFEIPKPFSKVKIFLGEPILIDDDEDLDKYTEIVKNGINSLNNQIEFLEHHHHHH”, “not soluble”; under “MEAKQTVFVNEFTNGILDPHGNMLGPVQDGGYIVANTTPGCWGPMITPCIRGGHEVTKPVFVEGAEVGDAIAIKIKSIRVTSIATSSGNDKPMEGRFVGDPFVAVKCPQCGTMYPETKIEGIGPEAIRCANCGADVTPFVFTNGYTMTFDPNRQIGVTVHKEAAEHIARQGRYYMATPDNSVQNPIVTFAPHDLVGTVARLRPFLGQLGTTPARPLPDSHNAGDFGQFLINAPHEYGITKEQLEDRTDGHMDINRVREGAVLICPVKVRGGGVYLGDMHAMQGDGEIAGHTTDVSGIVTLQVKVIKGLTIDGPILLPVAEDLPYLAKPLTKKEKEIALDLAQSWGVDKLEESLPISFVGTGANLNEATENGLQRAAKTLGISVPEVMNRATITGAIEIGRHPGVITVTFLCPIRYLDKISLTSLVYDQYRSVLE”, “not soluble”.
For “MAHHHHHHMQTNVLERIRALEADIERCIDSIVQQDLFAASIENERHRILLDHFTLQQVGIVRSTAEKLLDVYLDEDDIVQVQNAPAESPDNIAAAVKEFEAKIADIREYHHIYRDLPPVKDELAVPSPRLLDDIFTVHERYGACFDMDAHYNRYSAFMVHTKTLAEGCVSASAEVKKELAPLSPSSVLKWSSMWPGRLDFFSFTKALPQLLLHEVEAHRKIVGFALYKPFVAELLAYLEGFYRRIHPLKPAALERLMAEVESDAEKYWASLVEVKAEVTSVAATTAAASTEDEQADVQDVEDERVEEREAGGAAGSSSKGQTAAPVRIAVGNKVACGLAIPPSLRQHVKKFSLWPLPLIEKLIEDVGQASGTSDGAVASTSKLPTSVADVKMVCLMEAKAAALLQSFLYTTLETTNTSLLRDYSRTLEELENDREVAEQEFLDSLEEVRKNSADTMEGTVAHAAEYNLKLALEDSKGSRRGRHGKASAPAPVAAAPAAPELPLEEEEEQLIGENGEPIPRWLAQLHQLDKMFRCDVCGGTIYKGPKVFREHFGAERHAEGLRRLGVMHHLKSYEGITSIRQVVEMREQLTGGESGFRKRLRDNTDNEEIQDARGHVVTAKEYLRLQQRRR” the value was “not soluble”.
Regarding “MKILAFETSTEACSVALHVDGAVRERFELAPRRHAELALPWAEQLLAEAGISRRQLDAIAVGRGPGAFSGVRLAIGIVQGIALALDLPVLAISTLQVLALRAPAEASHVLACIDARMGEVYAGLFERQGEALLTLGSEVVCAPEAVLLPQSTPQWAGVGTGLAAGEMPLQQRFAGRLSSVDAAALPHAADLLTLALPAALRGEGVAPERVEPAYLRDNVALTLVEQQAARAAKAAAVPR”, the “soluble on expression in E. coli” value is “soluble”.
Under “MSLTCGSGFGGRAFSCISACGPRPGRCCITAAPYRGISCYRGLTGGFGSHSVCGGFRAGSCGRSFGYRSGGVCGPSPPCITTVSVNESLLTPLNLEIDPNAQCVKQEEKEQIKSLNSRFAAFIDKVRFLEQQNKLLETKLQFYQNRECCQSNMEPLFEGYIETLRREAECVEADSGRLASELNHVQEVLEGYKKKYEEEVSLRATAENEFVALKKDVDCAYLRKSDLEANVEALIQEIDFLRRLYEEEIRILQSHISDTSVVVKLDNSRDLNMDCIIAEIKAQYDDIVTRSRAEAESWYRSKCEEMKATVIRHGETLRRTKEEINELNRMIQRLTAEVENAKCQNSKLEAAVAQSEQQGEAALSDARCKLAELEGALQKAKQDMACLIREYQEVMNSKLGLDIEIATYRRLLEGEEQRLCEGIGAVNVCVSSSRGGVVCGDLCVSGSRPVTGSVCSAPCNGNVAVSTGLCAPCGQLNTTCGGGSCGVGSCGISSLGVGSCGSSCRKCEGHHHHHH” stands “not soluble”; under “MGSDKIHHHHHHMINNYLERQIKENFPYQPTFEQEIAVKSLSEFLLSTLADEVFILRGYAGTGKTSLVGALVKTMDQLQQKAVLLAPTGRAAKVFSSYAGHPAFTIHKKIYRQQSFSNETSNFSINDNLATNTLFIVDEASMISNEGLSGSMFGTGRLLDDLIQFVYSGQGCRLLLMGDTAQLPPVGEELSPALFADALKGYGLEVREVDLTQVVRQIQESGILWNATQLRQLIAEDNCYSLPKIKITGFPDIKMVPGTELIDAITSCYDHDGMDETIVICRSNKRANLYNNGIRAQILWREDELNTGDMLMIAKNNYYWTEQYKEMDFIANGEIAVVRRVRKTREMYGFRFAEVTLRFPDQNDFELDANLLLDTLHSDSPALPKVDNDRLFYTILEDYADISNKRDRMKKMKADPHYNALQVKYAYAITCHKAQGGQWQNVFLDQGYMTDEYLTPDYFRWLYTAFTRATKTLYLVNYPKEQIL”, “not soluble”; under “GPGSMEGPPPVCFRQCSFTYGAEPSTLHISQQCFSDYVWILVTEDDTCVPGVVLRFDPHDAGPCVGCESLNNLPSLPCEYLLGVRDHALTNILSSAIAHAIQSVGEQRPLLLCVSAAKTAKRLQTTEERMSFVRMVREKVVALAKGETC”, “not soluble”.
Under “MSLDMKTTHTSLPFAGHTLHFVEFDPASFREQDLLWLPHYAQLQHAGRKRKTEHLAGRIAAIYALREYGYKCVPAIGELRQPVWPAGVYGSISHCGTTALAVVSRQPIGIDIEEIFSAQTARELTDNIITPAEHKRLADCGLAFPLALTLAFSAKESAFKASEIQTDADFLDYQIISRNKQQVIIHRENEMFAVHWQIKEKIVITLCQHDEGHHHHHH” stands “soluble”; under “MDMQVVPKIGISSVVHSKHIDPGSIDVVGNDIALFDTESVISLYNGPSKLEVVSIGLCLEGSTRFNISLREFELIPGRMVIALPNQIIEHRQFSSNFRGIFFAVSKSLLESLPKVGNVLSFFFFLKDYPCFDLNLHEQEMIKEYHAFIRKRLKNKDDRYRREVVMGLMQGFFFELCNIFNSYAPDASAVVKSKSRKEYIFERFYESLVQSYQSERSVKFYADQLCLTPKHLSGVVKEVSGKTVGEWIDELVILEAKALLNSSSMNIQEIADRLNFANQSFFGKYFKHYTGMSPKEYRKSR”, “not soluble”.
Under “MEDNNELIKGRGAQMQAKSRFHAQEIVQEHMEGIDEITDINTPTQYLYENAKQIVNKVDSPDIGLAYSMNPYQGCEHGCIYCYARNSHEYWGYNAGIDFEKKIIVKRNAASVLAKTFEKPNWEVLPIMFSGNTDCYQPIERKLQITRNMLQVIATYKHPVGMITKNHLITRDIDILKELAAQQLVHVSISITSARDEIRQKLEPRASAISQRLKTVEALAKENIPVNVMIAPIIPGINHHEIPQIMKQIADAGASSAAYTIVRLNGSIGVVFEDWIRKAYPDRADKVLNQIKECHGGTLNDSRFSTRMRGQGNIAASIHDLFYVSRKKYLSGREYPPLRTDLFVRSNKGQLGLF” stands “not soluble”; under “MKILALDTSALVAAVAVMEDDRLLAEYMLNHRKTHSQQLVAMIREVLASLELAPKDIDVFAASTGPGSFTGLRIGVTTVKAMAYATGKPVVSVPTLDAIAYNIPMNSFTICPVMDARNNQVYTALYDWDENGQKRITDYMGIPVSELVQLIKDMGKKVIFAGDAAKMHEEYFTQELGDDCKIAPGNLLLQRASSVARLAYLKAMNNELESCFDMVPFYLRKSQAEREYEKKLCKDC”, “not soluble”; under “MVEVVSVREHDRWRGVYVVELEDGSLRIATKNLVPGQRVYGERIFRYNGEEYREWNAYRSKLAAALLKGLIELPVKEGDRILYLGIASGTTASHMSDIIGPRGRIYGVEFAPRVMRDLLTVVRDRRNIFPILGDARFPEKYRHLVEGVDGLYADVAQPEQAAIVVRNARFFLRDGGYMLMAIKARSIDVTTEPSEVYKREIKTLMDGGLEIKDVVHLDPFDRDHAMIYAVMRR”, “soluble”.
For the sequence “AHHHHHHGSEDIVEALKLAVTNLPEDVALALKNAYEREDYEIAKYNLEIMLRAVKTSKKEKVPLCQDTGTPIFFVETDGTWNVKEIYETIAEAVKRATDEIPLRPNAICLLSGKVVGNVPEIHIEPGKRNRISILIKGGGSENCSALFPLTPGDWFEGVKKKIIDHIRSCGGKPCPPIIVGIGIASPAERAITLAKKSLFRKIGERHEKLGWLEEEILEEINFLDIGPMGLGGKTTALDVKIEVGERHPASFIVGIAIQCWAHRRAFIEEKEDGEVVIWQ”, the “soluble on expression in E. coli” value is given as “soluble”.
As to “EKFVFEGKGDEVIGIEKPGDFVVVLDEVEHEKFVRKGDNLIIQHNIDLSEALCGFVRTISTLDGRTIFYRVLPGEVIAHADVKVIHNEGMPMRRASSDKGDLLVQFDVKFPDKINPDAAKKLADLL”, the “soluble on expression in E. coli” value was “not soluble”.
In the case of “MMKKSSDCTEILVGKAASMDGSTIVARNEDGYGPINPIKFVVHPAVDQTGASFTSAVTGVEVPLPDHAYRYTGTPQADQSDGQYEEAGINELNVGMSATETTATNARVLGYDPLVDDGINEEAMITLVLPYIKSAKEGAARLGALIEKYGTGESNSIAFNDQNDVWYLETAGGHHWAAMRLPEDTYAIAPNQTLMQTVDLQDTDNFLVASDLVDFVAQHHLNPTPDTFNFREIFGTHGEDDAYYNTPRTWYGQKLFNPEITDQQPTDQDMPFTRKPAKKLAIEDVQFFLSSHYNGTPYDPFGTYASGSAADQRKYRPIAMDRNQCSSILQIRNDVPADHAAIQWIAMGFFAYAPYVPFFTNITDTPADYQSTTAAVDVANVYWLNKTLSVLIEPHFHDYVEAVNAFRDGCQSYARSRVAATDAAVSGNVSAFLTQSNQITAGEISKRTRELFDTIVKHGLLLSKTAWEKGQNL”, the “soluble on expression in E. coli” value is given as “not soluble”.
Under “MSQGVEFNRLMLDMRAMQADAMSLPKVTAAPELAPGQSTFADMLGQAIGKVHETQQASTQLANAFEIGKSGVDLTDVMIASQKASVSMQAMTQVRNKLVQAYQDIMQMPV” stands “not soluble”; under “MGSDKIHHHHHHMKTLIKNVHILTMDEQFSEIKAGYLVIEEDTIVELAPMTTLDEKRMAANQVIDGQNGILMPGMINTHTHVGMIPFRSLGDDVPDRLRRFLFPLEQFMTKELVGCSSDYAIAEMLLSGITSFCDMYYFEDEIAKSCEKMSVRALLGETIIDMPTCDSPEPSGGLFYAETFIRKWQGHPLITPMLAPHAPNTNSPEVLAKIIELSRQYQVPVTMHVAEMTYEMAEFEKAYQKTPIAFLEELGYLSEPFILAHCILATDEDLASLAATNGKARVAHCIGANTKSAKGVAPIKQMLDQGIIVGLGTDGPSSGNTLDLFTQMRMVANFHKTAHQDRSLFPAKEIVYLATMGGAKTLGLAEQVGSLEVDKKADITLIETQSVNMFPIFDAYSALVYSANASNVEAVWVNGQQLVANKELQQANLKEIKEKLYQAMNTFVKEAKKRAAL”, “not soluble”.
